Measured values reported in article PMC2119998.
pKd: −log10 of the molar value.

How the values were obtained:
Test in all cases: radioligand binding
[1] = biological target: Ng-CAM (chicken) (chicken) (UniProt Q03696)
laminin = biological target: laminin
[2] = biological target: Ng-CAM and N-CAM (physiological salt)

Sequence of neurocan (P55067 23-1257): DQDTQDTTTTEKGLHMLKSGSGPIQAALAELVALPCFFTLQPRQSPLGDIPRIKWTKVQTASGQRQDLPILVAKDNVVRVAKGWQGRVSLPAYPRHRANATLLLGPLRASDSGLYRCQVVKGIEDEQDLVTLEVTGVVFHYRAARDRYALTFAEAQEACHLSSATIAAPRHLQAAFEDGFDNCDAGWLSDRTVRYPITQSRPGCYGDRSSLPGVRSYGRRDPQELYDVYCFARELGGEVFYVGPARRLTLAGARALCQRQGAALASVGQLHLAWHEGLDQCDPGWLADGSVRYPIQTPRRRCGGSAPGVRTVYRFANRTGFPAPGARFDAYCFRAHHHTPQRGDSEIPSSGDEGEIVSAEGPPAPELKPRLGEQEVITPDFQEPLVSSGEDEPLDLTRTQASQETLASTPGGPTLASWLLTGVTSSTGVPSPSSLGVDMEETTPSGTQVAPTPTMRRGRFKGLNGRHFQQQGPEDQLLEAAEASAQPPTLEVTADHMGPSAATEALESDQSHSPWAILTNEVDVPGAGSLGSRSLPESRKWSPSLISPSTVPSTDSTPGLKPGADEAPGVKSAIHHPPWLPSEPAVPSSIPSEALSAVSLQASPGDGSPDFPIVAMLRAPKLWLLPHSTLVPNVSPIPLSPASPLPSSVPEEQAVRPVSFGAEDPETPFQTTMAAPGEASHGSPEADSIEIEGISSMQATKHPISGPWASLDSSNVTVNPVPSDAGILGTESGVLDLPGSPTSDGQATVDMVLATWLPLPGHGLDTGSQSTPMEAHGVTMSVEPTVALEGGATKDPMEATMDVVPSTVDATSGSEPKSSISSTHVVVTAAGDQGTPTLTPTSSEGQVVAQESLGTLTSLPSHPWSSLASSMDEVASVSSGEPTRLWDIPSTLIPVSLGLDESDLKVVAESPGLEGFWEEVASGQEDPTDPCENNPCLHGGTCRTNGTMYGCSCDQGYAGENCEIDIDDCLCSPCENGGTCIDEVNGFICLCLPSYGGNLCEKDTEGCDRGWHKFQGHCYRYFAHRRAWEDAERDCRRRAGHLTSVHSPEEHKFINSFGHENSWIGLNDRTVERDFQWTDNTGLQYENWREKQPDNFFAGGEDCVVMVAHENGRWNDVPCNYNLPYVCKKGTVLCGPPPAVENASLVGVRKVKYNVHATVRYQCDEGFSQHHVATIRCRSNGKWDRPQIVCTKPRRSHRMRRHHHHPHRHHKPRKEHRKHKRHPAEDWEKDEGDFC
Sequence of Ng-CAM (chicken) (chicken) (Q03696 21-1266): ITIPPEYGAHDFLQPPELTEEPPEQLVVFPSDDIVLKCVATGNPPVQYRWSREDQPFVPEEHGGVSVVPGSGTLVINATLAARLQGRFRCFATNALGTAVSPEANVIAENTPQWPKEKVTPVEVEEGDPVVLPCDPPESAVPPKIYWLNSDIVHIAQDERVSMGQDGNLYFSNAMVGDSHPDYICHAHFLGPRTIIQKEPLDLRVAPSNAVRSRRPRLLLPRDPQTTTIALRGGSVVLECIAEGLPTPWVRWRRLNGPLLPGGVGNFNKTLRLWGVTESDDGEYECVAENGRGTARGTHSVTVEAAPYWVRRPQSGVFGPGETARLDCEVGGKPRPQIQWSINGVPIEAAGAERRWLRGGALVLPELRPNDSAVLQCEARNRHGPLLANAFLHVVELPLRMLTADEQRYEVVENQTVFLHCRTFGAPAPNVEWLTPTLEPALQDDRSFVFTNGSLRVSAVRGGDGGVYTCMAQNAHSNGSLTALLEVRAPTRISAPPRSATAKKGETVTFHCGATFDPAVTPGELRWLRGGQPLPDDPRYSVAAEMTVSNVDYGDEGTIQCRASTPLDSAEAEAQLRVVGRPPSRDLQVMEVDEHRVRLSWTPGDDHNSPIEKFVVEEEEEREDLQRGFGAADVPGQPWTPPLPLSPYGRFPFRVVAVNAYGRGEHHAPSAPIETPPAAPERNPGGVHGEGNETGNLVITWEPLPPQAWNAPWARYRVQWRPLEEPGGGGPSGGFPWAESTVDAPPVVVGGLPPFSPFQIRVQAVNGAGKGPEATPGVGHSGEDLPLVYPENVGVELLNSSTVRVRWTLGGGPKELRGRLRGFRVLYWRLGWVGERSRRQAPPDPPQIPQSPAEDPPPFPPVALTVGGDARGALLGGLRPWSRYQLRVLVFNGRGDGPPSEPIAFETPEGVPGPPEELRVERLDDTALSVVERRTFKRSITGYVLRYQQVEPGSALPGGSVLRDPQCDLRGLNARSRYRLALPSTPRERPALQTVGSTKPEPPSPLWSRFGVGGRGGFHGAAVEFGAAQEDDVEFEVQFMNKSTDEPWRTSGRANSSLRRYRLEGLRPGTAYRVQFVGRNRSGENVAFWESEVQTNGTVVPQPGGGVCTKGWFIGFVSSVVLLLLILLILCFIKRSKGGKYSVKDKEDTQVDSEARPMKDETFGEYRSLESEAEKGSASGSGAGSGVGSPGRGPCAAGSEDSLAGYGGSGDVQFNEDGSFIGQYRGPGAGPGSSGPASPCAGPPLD

| pKd [1] | t1/2 of dissociation in excess buffer [1] [h] | percent of total counts bound (laminin) [%] | percent decrease of binding in isotonic against hypotonic buffer [2] [%] | Substance |
| --- | --- | --- | --- | --- |
| 8.28 | 4 |  |  | neurocan-C (domain or fragment) |
|  |  | 9 | 35 to 60 | neurocan (from UniProt P55067 23-1257) (natural protein) |
